To fix the notation:
B1: glmS ribozyme (parent)
chain: AUAAAAGCGCCAGAACUACAGAAAUGUAGUUGACGAGGAGGAGGUUUAUCGAAUUUUCGGCGGAUGCCUCCAAA

± gives the standard error. For part of these data: This sample holds only a part of the variants without activity. Some results are limits rather than exact numbers.

What all share (settings): with glucosamine-6-phosphate
Data set [1] covers variants of B1. In words: kcat; higher = faster cleavage; RNA array. Summed up:
(§1)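 Glucosamine-6-phosphate (40 μM to 10 mM) in HEPES/KCl/Mg(OAc)2 buffer was flowed over sequenced MiSeq chips, and tiles were imaged over ~14 h. Barcoded ribozyme variants there had been transcribed in situ by E. coli RNA polymerase and were tracked through a hybridised Cy3 probe at 37 °C. One- or two-exponential decay fits to per-tile medians, normalised to baseline and to non-cleaving reference variants, gave kobs. kcat and KM came from weighted Michaelis–Menten fits across concentrations.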

The variants in data set [2] derive from B1. Put plainly: KM; higher = weaker cofactor use; RNA array. In a few lines:
as §1

In data set [3] the parent is B1. In words: self-cleavage kobs at 40 uM GlcN6P; higher = faster cleavage; RNA array. Summed up: as §1
In data set [4] the parent is B1. In words: self-cleavage kobs at 160 uM GlcN6P; higher = faster cleavage; RNA array. In a few lines: as §1
Data set [5] covers variants of B1. In words: self-cleavage kobs at 640 uM GlcN6P; higher = faster cleavage; RNA array. In a few lines: as §1
The variants in data set [6] derive from B1. Put plainly: self-cleavage kobs at 2500 uM GlcN6P; higher = faster cleavage; RNA array. In a few lines:
as §1

Variants of B1 are the subject of data set [7]. In words: self-cleavage kobs at 10000 uM GlcN6P; higher = faster cleavage; RNA array. In a few lines:
as §1

For orientation: kcat means the maximal rate divided by the concentration of active sites. By KM is commonly meant the substrate concentration at which the rate is half of its maximum. As to A14C C16U, in the data set with glucosamine-6-phosphate [1], the kcat came out at 0.00104 ± 0.00016 s⁻¹. Besides, the KM in the data set with glucosamine-6-phosphate [2] was 922 ± 250 µM. The “self-cleavage kobs at 40 uM GlcN6P” value in the data set with glucosamine-6-phosphate [3] was determined as 5.34e-05 ± 1.1e-05 s⁻¹. Besides, the “self-cleavage kobs at 160 uM GlcN6P” value in the data set with glucosamine-6-phosphate [4] amounted to 0.000144 ± 1.9e-05 s⁻¹. For the same variant, the “self-cleavage kobs at 640 uM GlcN6P” value with glucosamine-6-phosphate [5] was 0.000451 ± 4.8e-05 s⁻¹. Besides, the “self-cleavage kobs at 2500 uM GlcN6P” value with glucosamine-6-phosphate [6] was 0.000655 ± 7.7e-05 s⁻¹. For the same variant, in the data set with glucosamine-6-phosphate [7], the “self-cleavage kobs at 10000 uM GlcN6P” value was determined as 0.00118 ± 0.00016 s⁻¹.

Take C10U C70U: in the data set with glucosamine-6-phosphate [1], the kcat was determined as 2.53e-05 ± 1.3e-06 s⁻¹. The KM with glucosamine-6-phosphate [2] was 777 ± 240 µM. The “self-cleavage kobs at 2500 uM GlcN6P” value in the data set with glucosamine-6-phosphate [6] was 1.83e-05 ± 8e-06 s⁻¹. In addition, the “self-cleavage kobs at 10000 uM GlcN6P” value with glucosamine-6-phosphate [7] turned out to be 2.38e-05 ± 7e-06 s⁻¹.

With U31A G41C, the kcat with glucosamine-6-phosphate [1] was 0.000118 ± 1.6e-05 s⁻¹. Moreover, the KM in the data set with glucosamine-6-phosphate [2] was determined as 501 ± 200 µM. Besides, the “self-cleavage kobs at 640 uM GlcN6P” value with glucosamine-6-phosphate [5] came out at 6.84e-05 ± 1.6e-05 s⁻¹. The “self-cleavage kobs at 2500 uM GlcN6P” value in the data set with glucosamine-6-phosphate [6] came out at 9.73e-05 ± 2.2e-05 s⁻¹.

Regarding G40C C71G, the kcat with glucosamine-6-phosphate [1] was 0.0271 ± 0.0085 s⁻¹. Besides, in the data set with glucosamine-6-phosphate [2], the KM was determined as 1170 ± 420 µM. Moreover, the “self-cleavage kobs at 40 uM GlcN6P” value with glucosamine-6-phosphate [3] turned out to be 0.000948 ± 8.7e-05 s⁻¹. Besides, in the data set with glucosamine-6-phosphate [4], the “self-cleavage kobs at 160 uM GlcN6P” value amounted to 0.0028 ± 0.00046 s⁻¹. In the data set with glucosamine-6-phosphate [5], the “self-cleavage kobs at 640 uM GlcN6P” value came to 0.00953 ± 0.0017 s⁻¹. Moreover, the “self-cleavage kobs at 2500 uM GlcN6P” value with glucosamine-6-phosphate [6] came to 0.0203 ± 0.0057 s⁻¹.

A33U C70G: the kcat in the data set with glucosamine-6-phosphate [1] turned out to be 1.5e-05 ± 1.8e-06 s⁻¹.

As to A53C C70U, the kcat with glucosamine-6-phosphate [1] amounted to 0.00487 ± 0.0012 s⁻¹. Moreover, the KM with glucosamine-6-phosphate [2] is 2220 ± 670 µM. For the same variant, the “self-cleavage kobs at 40 uM GlcN6P” value with glucosamine-6-phosphate [3] turned out to be 0.000105 ± 1.2e-05 s⁻¹. Besides, the “self-cleavage kobs at 160 uM GlcN6P” value with glucosamine-6-phosphate [4] was 0.000315 ± 2.6e-05 s⁻¹. Also, the “self-cleavage kobs at 640 uM GlcN6P” value with glucosamine-6-phosphate [5] came to 0.000893 ± 0.00013 s⁻¹. Moreover, in the data set with glucosamine-6-phosphate [6], the “self-cleavage kobs at 2500 uM GlcN6P” value came out at 0.00403 ± 0.0007 s⁻¹. Further, the “self-cleavage kobs at 10000 uM GlcN6P” value with glucosamine-6-phosphate [7] amounted to 0.00392 ± 0.00044 s⁻¹.

As to C16U C67G, the kcat with glucosamine-6-phosphate [1] is 0.000799 ± 5.5e-05 s⁻¹. In addition, in the data set with glucosamine-6-phosphate [2], the KM was found to be 1570 ± 190 µM. The “self-cleavage kobs at 40 uM GlcN6P” value with glucosamine-6-phosphate [3] came to 1.87e-05 ± 6.4e-06 s⁻¹. Moreover, in the data set with glucosamine-6-phosphate [4], the “self-cleavage kobs at 160 uM GlcN6P” value was found to be 7.2e-05 ± 9.4e-06 s⁻¹. The “self-cleavage kobs at 640 uM GlcN6P” value with glucosamine-6-phosphate [5] came to 0.000229 ± 2.2e-05 s⁻¹. Besides, in the data set with glucosamine-6-phosphate [6], the “self-cleavage kobs at 2500 uM GlcN6P” value turned out to be 0.000566 ± 6.2e-05 s⁻¹. Also, in the data set with glucosamine-6-phosphate [7], the “self-cleavage kobs at 10000 uM GlcN6P” value came to 0.000664 ± 5.4e-05 s⁻¹.

With U57G C61G C70U, the kcat with glucosamine-6-phosphate [1] was determined as 2.66e-05 ± 9e-06 s⁻¹. The “self-cleavage kobs at 640 uM GlcN6P” value with glucosamine-6-phosphate [5] was found to be 3.58e-05 ± 1.7e-05 s⁻¹.

Take G37U U54G: the kcat in the data set with glucosamine-6-phosphate [1] is below 1e-05 s⁻¹. Further, the “self-cleavage kobs at 40 uM GlcN6P” value with glucosamine-6-phosphate [3] was below 1e-05 s⁻¹. Besides, the “self-cleavage kobs at 160 uM GlcN6P” value with glucosamine-6-phosphate [4] was below 1e-05 s⁻¹. The “self-cleavage kobs at 640 uM GlcN6P” value with glucosamine-6-phosphate [5] is below 1e-05 s⁻¹.

Regarding U30A U49G, in the data set with glucosamine-6-phosphate [1], the kcat was found to be 0.000169 ± 3.4e-05 s⁻¹. Moreover, in the data set with glucosamine-6-phosphate [2], the KM was found to be 3780 ± 1600 µM. Moreover, the “self-cleavage kobs at 2500 uM GlcN6P” value with glucosamine-6-phosphate [6] came to 7.22e-05 ± 1.2e-05 s⁻¹. The “self-cleavage kobs at 10000 uM GlcN6P” value in the data set with glucosamine-6-phosphate [7] turned out to be 0.000119 ± 2.1e-05 s⁻¹.

As to C10U G66U, the kcat with glucosamine-6-phosphate [1] is below 1e-05 s⁻¹. Further, the “self-cleavage kobs at 160 uM GlcN6P” value in the data set with glucosamine-6-phosphate [4] is below 1e-05 s⁻¹. The “self-cleavage kobs at 640 uM GlcN6P” value with glucosamine-6-phosphate [5] was below 1e-05 s⁻¹. In the data set with glucosamine-6-phosphate [7], the “self-cleavage kobs at 10000 uM GlcN6P” value was below 1e-05 s⁻¹.

G13U C61A: the kcat with glucosamine-6-phosphate [1] amounted to 1.33e-05 ± 2.2e-06 s⁻¹.

On to A53C U65A, for which the kcat with glucosamine-6-phosphate [1] is 0.000359 ± 3.3e-05 s⁻¹. Further, in the data set with glucosamine-6-phosphate [2], the KM came to 1720 ± 320 µM. For the same variant, in the data set with glucosamine-6-phosphate [4], the “self-cleavage kobs at 160 uM GlcN6P” value is 3.15e-05 ± 1e-05 s⁻¹. For the same variant, in the data set with glucosamine-6-phosphate [5], the “self-cleavage kobs at 640 uM GlcN6P” value was determined as 9.23e-05 ± 1.4e-05 s⁻¹. For the same variant, in the data set with glucosamine-6-phosphate [6], the “self-cleavage kobs at 2500 uM GlcN6P” value stood at 0.00025 ± 3.8e-05 s⁻¹. The “self-cleavage kobs at 10000 uM GlcN6P” value with glucosamine-6-phosphate [7] was 0.000294 ± 3.7e-05 s⁻¹.

As to U69A C70U, the kcat with glucosamine-6-phosphate [1] stood at 6.79e-05 ± 5.4e-06 s⁻¹. Also, in the data set with glucosamine-6-phosphate [4], the “self-cleavage kobs at 160 uM GlcN6P” value is 3.52e-05 ± 1e-05 s⁻¹. For the same variant, the “self-cleavage kobs at 640 uM GlcN6P” value with glucosamine-6-phosphate [5] amounted to 4.97e-05 ± 8.2e-06 s⁻¹. In addition, the “self-cleavage kobs at 2500 uM GlcN6P” value in the data set with glucosamine-6-phosphate [6] turned out to be 7.15e-05 ± 7.1e-06 s⁻¹. Besides, the “self-cleavage kobs at 10000 uM GlcN6P” value with glucosamine-6-phosphate [7] came to 6.03e-05 ± 7.8e-06 s⁻¹.

Take C50G A53G: the kcat with glucosamine-6-phosphate [1] is 4.4e-05 ± 2.2e-05 s⁻¹. In addition, the “self-cleavage kobs at 2500 uM GlcN6P” value with glucosamine-6-phosphate [6] worked out at 3.81e-05 ± 1.5e-05 s⁻¹.

Regarding G40C U47C, the kcat in the data set with glucosamine-6-phosphate [1] came out at 0.000914 ± 0.0001 s⁻¹. Further, the KM in the data set with glucosamine-6-phosphate [2] was found to be 2020 ± 360 µM. Further, the “self-cleavage kobs at 160 uM GlcN6P” value with glucosamine-6-phosphate [4] was determined as 7.4e-05 ± 2e-05 s⁻¹. In addition, the “self-cleavage kobs at 640 uM GlcN6P” value in the data set with glucosamine-6-phosphate [5] worked out at 0.000201 ± 4.4e-05 s⁻¹. For the same variant, in the data set with glucosamine-6-phosphate [6], the “self-cleavage kobs at 2500 uM GlcN6P” value was found to be 0.000591 ± 0.00016 s⁻¹. Also, in the data set with glucosamine-6-phosphate [7], the “self-cleavage kobs at 10000 uM GlcN6P” value was found to be 0.000741 ± 0.00015 s⁻¹.

As for A36U C50A, in the data set with glucosamine-6-phosphate [1], the kcat is below 1e-05 s⁻¹. Besides, the “self-cleavage kobs at 160 uM GlcN6P” value with glucosamine-6-phosphate [4] was below 1e-05 s⁻¹.

The values are drawn from the supplement of paper PMC7125110.
